# In publication PMC9231623 (2022):
# T1: SNX5 PX domain (UniProt Q9Y5X3 25-172)
# T1 chain: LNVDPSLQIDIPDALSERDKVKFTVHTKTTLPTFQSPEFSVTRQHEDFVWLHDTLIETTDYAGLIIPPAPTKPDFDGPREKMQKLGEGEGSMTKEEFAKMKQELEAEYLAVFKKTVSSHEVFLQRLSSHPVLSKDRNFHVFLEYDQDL
# B1: NRP1 peptide (residues 894 to 918 of the cytosolic tail) (peptide)
# peptide: not shown
# Target: T1, SNX5 PX domain
# Assay: ITC
binder,measurement,value
B1,Kd,17.6 µM
